Experimental data published in FireProtDB (doi:10.1021/bi00010a017).

Conditions: Saccharomyces cerevisiae (strain ATCC 204508 / S288c), pH 4.6, Thermal, CD, Unknown, reversible: yes

Sequence of Cytochrome c isoform 1 F16Y, P00044 (P00044 whole entry F16Y, canonical isoform): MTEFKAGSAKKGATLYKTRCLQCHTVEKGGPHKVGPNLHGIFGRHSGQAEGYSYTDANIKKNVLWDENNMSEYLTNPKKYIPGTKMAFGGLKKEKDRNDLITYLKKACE
Sequence of Cytochrome c isoform 1 L100A, P00044 (P00044 whole entry L100A, canonical isoform): as the sequence (P00044 whole entry F16Y, canonical isoform) above, with Y16F, L100A counted along it
Sequence of Cytochrome c isoform 1 L100I, P00044 (P00044 whole entry L100I, canonical isoform): as the sequence (P00044 whole entry F16Y, canonical isoform) above, with Y16F, L100I counted along it
Sequence of Cytochrome c isoform 1 wild type, P00044 (P00044 whole entry, canonical isoform): as the sequence (P00044 whole entry F16Y, canonical isoform) above, with Y16F counted along it
Sequence of Cytochrome c isoform 1 L100V, P00044 (P00044 whole entry L100V, canonical isoform): as the sequence (P00044 whole entry F16Y, canonical isoform) above, with Y16F, L100V counted along it
Sequence of Cytochrome c isoform 1 Y103A, P00044 (P00044 whole entry Y103A, canonical isoform): as the sequence (P00044 whole entry F16Y, canonical isoform) above, with Y16F, Y103A counted along it
Sequence of Cytochrome c isoform 1 L100A|Y103F, P00044 L100A Y103F (P00044 whole entry L100A/Y103F, canonical isoform): as the sequence (P00044 whole entry F16Y, canonical isoform) above, with Y16F, L100A, Y103F counted along it
Sequence of Cytochrome c isoform 1 F16W, P00044 (P00044 whole entry F16W, canonical isoform): as the sequence (P00044 whole entry F16Y, canonical isoform) above, with Y16W counted along it
Sequence of Cytochrome c isoform 1 L100I|Y103F, P00044 L100I Y103F (P00044 whole entry L100I/Y103F, canonical isoform): as the sequence (P00044 whole entry F16Y, canonical isoform) above, with Y16F, L100I, Y103F counted along it
Sequence of Cytochrome c isoform 1 F16I, P00044 (P00044 whole entry F16I, canonical isoform): as the sequence (P00044 whole entry F16Y, canonical isoform) above, with Y16I counted along it
Sequence of Cytochrome c isoform 1 Y103F, P00044 (P00044 whole entry Y103F, canonical isoform): as the sequence (P00044 whole entry F16Y, canonical isoform) above, with Y16F, Y103F counted along it
Sequence of Cytochrome c isoform 1 L100T, P00044 (P00044 whole entry L100T, canonical isoform): as the sequence (P00044 whole entry F16Y, canonical isoform) above, with Y16F, L100T counted along it

Substance	Tm (structure 1YCC)	change of melting temperature, mutant - wild type (higher = more stable) (structure 1YCC)	heat capacity change of unfolding (structure 1YCC)	unfolding enthalpy (van 't Hoff) (structure 1YCC)	heat capacity change of unfolding (52.8 °C, structure 1YCC)	unfolding free energy (52.8 °C, structure 1YCC)	heat capacity change of unfolding (52.8 °C)	unfolding free energy (52.8 °C)	Tm	heat capacity change of unfolding	unfolding enthalpy (van 't Hoff)
Cytochrome c isoform 1 L100V, P00044	48.8 °C	-4 °C	1.54 kcal/mol/K	81.6 kcal/mol							
Cytochrome c isoform 1 Y103A, P00044	31.1 °C	-21.7 °C	1.77 kcal/mol/K	49.2 kcal/mol							
Cytochrome c isoform 1 F16Y, P00044	50.9 °C	-1.9 °C	1.26 kcal/mol/K	75.5 kcal/mol							
Cytochrome c isoform 1 F16W, P00044	47.6 °C	-5.2 °C	1.6 kcal/mol/K	75.6 kcal/mol							
Cytochrome c isoform 1 L100I, P00044	54.1 °C	1.3 °C	1.81 kcal/mol/K	87.2 kcal/mol	1.81 kcal/mol/K	0.33 kcal/mol					
Cytochrome c isoform 1 wild type, P00044							1.37 kcal/mol/K	0 kcal/mol	52.8 °C	1.37 kcal/mol/K	82.5 kcal/mol
Cytochrome c isoform 1 Y103F, P00044	53.8 °C	1 °C	1.53 kcal/mol/K	84.5 kcal/mol	1.53 kcal/mol/K	0.24 kcal/mol					
Cytochrome c isoform 1 L100A|Y103F, P00044 L100A Y103F	33.4 °C	-19.4 °C	1.78 kcal/mol/K	53.7 kcal/mol							
Cytochrome c isoform 1 L100T, P00044	38.9 °C	-13.9 °C	1.49 kcal/mol/K	57.8 kcal/mol							
Cytochrome c isoform 1 F16I, P00044	48.5 °C	-4.3 °C	1.57 kcal/mol/K	79.9 kcal/mol							
Cytochrome c isoform 1 L100A, P00044	36.6 °C	-16.2 °C	1.94 kcal/mol/K	52.6 kcal/mol							
Cytochrome c isoform 1 L100I|Y103F, P00044 L100I Y103F	49.9 °C	-2.9 °C	1.76 kcal/mol/K	79.9 kcal/mol							
